Here are results for one molecule from PMC9036127, “The nuclease activity of DNA2 promotes exonuclease 1–independent mismatch repair” (The Journal of Biological Chemistry, 2022).

In the assay the target is T1, Human MutSα (MSH2-MSH6 heterodimer) (human, UniProt P43246 1-934; P52701 1-1360).
T1 construct: MSH2, human, subunit of MutSα; MSH6, human, subunit of MutSα
The assay is described as follows: co-IP; purified proteins; MutSα- or MutLα-containing agarose beads (antibodies against MSH2 or MLH1), DNA2 in solution; for MutSα 30-μl mixtures with MutSα (3.4 pmol) and DNA2 (3.4 pmol); eluted fractions analyzed by immunoblotting. As to conditions: both partners purified.

T1 sequence (P43246 whole entry, chain 1 of 2): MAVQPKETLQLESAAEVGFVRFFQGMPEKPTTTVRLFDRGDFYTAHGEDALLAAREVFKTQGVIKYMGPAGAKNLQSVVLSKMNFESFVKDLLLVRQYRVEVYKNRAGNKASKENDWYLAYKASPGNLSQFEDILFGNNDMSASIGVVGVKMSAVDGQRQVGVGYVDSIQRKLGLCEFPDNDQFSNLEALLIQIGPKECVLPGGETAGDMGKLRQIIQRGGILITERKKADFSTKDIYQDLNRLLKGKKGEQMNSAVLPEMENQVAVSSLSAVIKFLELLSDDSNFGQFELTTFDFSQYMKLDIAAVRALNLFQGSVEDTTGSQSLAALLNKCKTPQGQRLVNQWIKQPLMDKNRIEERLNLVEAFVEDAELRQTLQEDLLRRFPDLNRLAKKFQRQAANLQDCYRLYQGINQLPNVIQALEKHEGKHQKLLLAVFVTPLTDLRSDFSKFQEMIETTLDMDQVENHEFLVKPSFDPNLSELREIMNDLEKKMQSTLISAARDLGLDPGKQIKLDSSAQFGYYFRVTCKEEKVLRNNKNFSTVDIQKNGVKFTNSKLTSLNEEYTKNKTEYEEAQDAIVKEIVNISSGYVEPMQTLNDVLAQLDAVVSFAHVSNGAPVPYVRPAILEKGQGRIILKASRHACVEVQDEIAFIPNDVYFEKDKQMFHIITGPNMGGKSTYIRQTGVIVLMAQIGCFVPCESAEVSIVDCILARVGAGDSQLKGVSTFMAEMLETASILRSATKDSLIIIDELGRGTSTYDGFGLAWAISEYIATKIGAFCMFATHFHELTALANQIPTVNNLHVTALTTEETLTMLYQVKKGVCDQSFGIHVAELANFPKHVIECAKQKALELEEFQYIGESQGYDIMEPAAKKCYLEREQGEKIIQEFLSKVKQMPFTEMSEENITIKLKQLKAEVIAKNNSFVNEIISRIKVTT
T1 sequence (P52701 whole entry, chain 2 of 2): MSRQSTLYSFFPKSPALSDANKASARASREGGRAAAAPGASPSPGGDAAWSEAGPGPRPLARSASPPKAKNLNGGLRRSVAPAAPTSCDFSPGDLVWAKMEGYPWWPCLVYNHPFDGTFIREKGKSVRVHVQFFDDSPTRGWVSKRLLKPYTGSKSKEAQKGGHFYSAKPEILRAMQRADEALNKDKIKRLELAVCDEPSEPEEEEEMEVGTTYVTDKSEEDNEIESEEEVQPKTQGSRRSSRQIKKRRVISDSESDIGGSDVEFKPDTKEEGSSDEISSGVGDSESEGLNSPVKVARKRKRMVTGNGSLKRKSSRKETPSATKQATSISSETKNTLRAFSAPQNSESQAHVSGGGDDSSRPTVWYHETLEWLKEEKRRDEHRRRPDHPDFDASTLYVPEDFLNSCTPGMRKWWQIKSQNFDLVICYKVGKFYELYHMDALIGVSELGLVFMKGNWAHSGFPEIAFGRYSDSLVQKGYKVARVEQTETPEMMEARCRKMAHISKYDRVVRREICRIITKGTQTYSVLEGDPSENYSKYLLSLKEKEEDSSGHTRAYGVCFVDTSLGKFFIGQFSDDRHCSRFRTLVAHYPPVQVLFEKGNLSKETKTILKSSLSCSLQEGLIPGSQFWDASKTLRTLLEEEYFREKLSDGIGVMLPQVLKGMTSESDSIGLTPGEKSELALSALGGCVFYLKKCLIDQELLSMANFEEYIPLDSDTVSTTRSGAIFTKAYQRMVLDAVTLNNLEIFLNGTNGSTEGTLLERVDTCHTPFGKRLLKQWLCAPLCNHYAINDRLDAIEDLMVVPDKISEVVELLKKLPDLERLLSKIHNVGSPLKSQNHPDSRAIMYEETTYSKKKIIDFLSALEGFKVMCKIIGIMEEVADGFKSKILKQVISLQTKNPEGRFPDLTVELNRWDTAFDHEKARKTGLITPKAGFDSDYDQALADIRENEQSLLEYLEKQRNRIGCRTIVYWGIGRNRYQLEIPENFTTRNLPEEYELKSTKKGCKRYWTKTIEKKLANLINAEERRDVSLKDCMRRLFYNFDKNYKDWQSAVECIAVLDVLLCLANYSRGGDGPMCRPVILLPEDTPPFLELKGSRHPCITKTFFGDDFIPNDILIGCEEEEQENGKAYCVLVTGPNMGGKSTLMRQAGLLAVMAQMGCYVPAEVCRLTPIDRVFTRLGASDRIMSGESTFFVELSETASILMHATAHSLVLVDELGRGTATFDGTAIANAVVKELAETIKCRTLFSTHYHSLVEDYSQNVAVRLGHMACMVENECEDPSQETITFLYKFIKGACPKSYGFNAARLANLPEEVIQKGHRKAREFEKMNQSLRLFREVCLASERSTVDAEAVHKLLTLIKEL

B1: Human DNA2 nuclease/helicase (enzyme, UniProt P51530 1-1060, looked up)
chain: MEQLNELELLMEKSFWEEAELPAELFQKKVVASFPRTVLSTGMDNRYLVLAVNTVQNKEGNCEKRLVITASQSLENKELCILRNDWCSVPVEPGDIIHLEGDCTSDTWIIDKDFGYLILYPDMLISGTSIASSIRCMRRAVLSETFRSSDPATRQMLIGTVLHEVFQKAINNSFAPEKLQELAFQTIQEIRHLKEMYRLNLSQDEIKQEVEDYLPSFCKWAGDFMHKNTSTDFPQMQLSLPSDNSKDNSTCNIEVVKPMDIEESIWSPRFGLKGKIDVTVGVKIHRGYKTKYKIMPLELKTGKESNSIEHRSQVVLYTLLSQERRADPEAGLLLYLKTGQMYPVPANHLDKRELLKLRNQMAFSLFHRISKSATRQKTQLASLPQIIEEEKTCKYCSQIGNCALYSRAVEQQMDCSSVPIVMLPKIEEETQHLKQTHLEYFSLWCLMLTLESQSKDNKKNHQNIWLMPASEMEKSGSCIGNLIRMEHVKIVCDGQYLHNFQCKHGAIPVTNLMAGDRVIVSGEERSLFALSRGYVKEINMTTVTCLLDRNLSVLPESTLFRLDQEEKNCDIDTPLGNLSKLMENTFVSKKLRDLIIDFREPQFISYLSSVLPHDAKDTVACILKGLNKPQRQAMKKVLLSKDYTLIVGMPGTGKTTTICTLVRILYACGFSVLLTSYTHSAVDNILLKLAKFKIGFLRLGQIQKVHPAIQQFTEQEICRSKSIKSLALLEELYNSQLIVATTCMGINHPIFSRKIFDFCIVDEASQISQPICLGPLFFSRRFVLVGDHQQLPPLVLNREARALGMSESLFKRLEQNKSAVVQLTVQYRMNSKIMSLSNKLTYEGKLECGSDKVANAVINLRHFKDVKLELEFYADYSDNPWLMGVFEPNNPVCFLNTDKVPAPEQVEKGGVSNVTEAKLIVFLTSIFVKAGCSPSDIGIIAPYRQQLKIINDLLARSIGMVEVNTVDKYQGRDKSIVLVSFVRSNKDGTVGELLKDWRRLNVAITRAKHKLILLGCVPSLNCYPPLEKLLNHLNSEKLIIDLPSREHESLCHILGDFQRE
notes: DNA2 nuclease/helicase, human; wild type; source: insect Sf9 cells (baculovirus, codon-optimized gene), purified (α-Flag M2 beads, MonoS column)
Turning to B1, the binding result is given as “binds”.
